Test results reported in article PMC6461199.

Molecular target: TDP-43 N-RRM1-2 (UniProt Q13148 1-269)
Assay: BLI

Chain of TDP-43 N-RRM1-2 (Q13148 1-269): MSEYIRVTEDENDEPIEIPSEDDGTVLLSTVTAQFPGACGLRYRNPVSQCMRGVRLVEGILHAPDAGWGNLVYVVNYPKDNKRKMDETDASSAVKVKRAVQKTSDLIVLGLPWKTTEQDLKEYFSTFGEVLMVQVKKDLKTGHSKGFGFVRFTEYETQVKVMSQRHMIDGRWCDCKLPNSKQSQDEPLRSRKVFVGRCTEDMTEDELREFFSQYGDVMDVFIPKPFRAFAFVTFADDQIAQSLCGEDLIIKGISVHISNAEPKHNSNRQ

Question: How did the Kd turn out when UAGAGUAUGAUG (ssRNA) [RNA12S1] was run?
Answer: 60 nM

Question: UUAUACCUACCA (ssRNA) [NegRNA12S1] was tested. Which Kd did it give?
Answer: 1650 nM

Question: For GUGUGAAUGAAU (ssRNA) [RNA12], which Kd is on record?
Answer: 6.3 nM

Question: For AAGUGUGGUAUA (ssRNA) [RNA12S2], which Kd is on record?
Answer: 75 nM

Question: How did the Kd turn out when CUCACAUUAUCA (ssRNA) [NegRNA12S2] was run?
Answer: 1340 nM

Question: For AUUCAUUCACAC (ssRNA) [NegRNA12], which Kd is on record?
Answer: 1900 nM

Question: Which Kd does the source give for GUGUGAAUGAAUGUGUGAAUGAAUGUGUGAAUGAAU (ssRNA) [RNA36] here?
Answer: 22 nM
